According to publication PMC8668096, “Investigating the role of the carbon storage regulator A (CsrA) in Leptospira spp”:

T1: rCsrA L. biflexa (Leptospira biflexa serovar Patoc, UniProt B0SQM8 1-79)
T1 sequence: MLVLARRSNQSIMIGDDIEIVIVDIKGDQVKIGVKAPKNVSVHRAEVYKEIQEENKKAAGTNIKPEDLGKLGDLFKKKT


Key:
rCsrA L. biflexa [1] = target: T1, rCsrA L. biflexa; assay: EMSA; dose-dependent, 100-800 nM rCsrA, 1 nM RNA; 10 mM HEPES pH 7.3, 20 mM KCl, 1 mM MgCl2, 1 mM DTT (plus 10 mM DTT), 7.5% glycerol, 0.2 ug/uL yeast tRNA, 37 C 30 min; 10% native PAGE; details: protein: recombinant; tags: N-terminal 6xHis (pRSET-C); chain copies: 2; label: 5' biotin; hairpin (predicted, GGA-containing hexaloop)
rCsrA L. biflexa [2] = target: T1, rCsrA L. biflexa; assay: EMSA; no interaction, 100-800 nM rCsrA, 1 nM RNA; 10 mM HEPES pH 7.3, 20 mM KCl, 1 mM MgCl2, 1 mM DTT (plus 10 mM DTT), 7.5% glycerol, 0.2 ug/uL yeast tRNA, 37 C 30 min; 10% native PAGE; details: protein: recombinant; tags: N-terminal 6xHis (pRSET-C); chain copies: 2; label: 5' biotin

Binder	binding result (rCsrA L. biflexa [1])	binding result (rCsrA L. biflexa [2])
UGGACACACAGGAGGGUGUGAC (structured_RNA) [LEPBIa_1872 WT (flaB3 upstream)]	binds	–
UGGACACACAAAAGGGUGUGAC (structured_RNA) [LEPBIa_1872 Mut (GGA to AAA)]	–	no binding
